{"source": "paper PMC7201923", "molecular_target": "KPNA2 (UniProt P52292)", "assay": "anti-FLAG co-IP, immunoblot", "details": "sites S97"}
{"substance": "IRF3 (from UniProt Q14653)", "values": [{"measurement": "binding against the reference", "result": "stronger"}]}
